Measured values reported in paper PMC8421139.

Columns and labels:
Assay in all cases: EMSA
GST-TDRD3 UBA = target: T1, GST-TDRD3 UBA (UniProt Q9H7E2 193-233)
T1 chain: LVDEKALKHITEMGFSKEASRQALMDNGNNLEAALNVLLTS

GST-TDRD3 Tudor = GST-TDRD3 Tudor (UniProt Q9H7E2 555-615)
TDRD3 E691K = TDRD3 E691K (UniProt A0ACI8Q7A3 1-93+Q9H7E2:1-651, E598K;internal_change)

CCTCGCAAACTACTTAGATGTCATCCGCGAGC (ssDNA) [ssDNA probe (R-loop forward oligo)]
binding result (GST-TDRD3 UBA): no binding | binding result (GST-TDRD3 Tudor): no binding | binding result (TDRD3 E691K): binds
